Test results from PMC5489143, “One ligand, two regulators and three binding sites: How KDPG controls primary carbon metabolism in Pseudomonas” (PLoS Genetics, 2017).

Assays:
RccR (RccR-His) = target: T1, RccR (RccR-His) (Pseudomonas paralactis, UniProt A0A0R3AJU3); test: SPR (ReDCaT, Biacore T200), change of RccR binding to immobilised DNA; conditions: effector; lowers binding to aceE and rccR sites, raises binding to aceA 28 bp site; 0.5 uM RccR-His, 0-1000 uM ligand, 10 mM Hepes pH 7.4, 300 mM NaCl, 3 mM EDTA, 25 C
T1 construct: gene hexR; full gene in pET42b, E. coli BL21(DE3) pLysS; C-terminal His tag kept; nickel and heparin columns
T1 sequence (A0A0R3AJU3 1-288): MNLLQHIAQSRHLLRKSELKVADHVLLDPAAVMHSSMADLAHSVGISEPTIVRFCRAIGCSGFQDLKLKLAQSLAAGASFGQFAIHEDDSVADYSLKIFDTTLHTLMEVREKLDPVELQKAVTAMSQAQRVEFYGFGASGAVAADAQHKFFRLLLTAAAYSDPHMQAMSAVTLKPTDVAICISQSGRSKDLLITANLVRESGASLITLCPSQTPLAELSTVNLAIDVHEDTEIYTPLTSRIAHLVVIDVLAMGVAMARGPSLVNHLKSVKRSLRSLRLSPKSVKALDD

[1] = tested on: RccR-His (Pseudomonas fluorescens SBW25); test: DNase I footprinting; conditions: full protection concentration, SPR: 10 mM Hepes pH 7.4, 300 mM NaCl, 3 mM EDTA, 0.05% Tween20, 25 C, DNase I footprint: 10 mM Tris-HCl pH 8.0, 50 mM NaCl, 10 mM KCl, 5 mM MgCl2, 1 mM DTT …

`O=C(O)C(=O)C[C@H](O)[C@H](O)COP(=O)(O)O` [KDPG, 2-keto-3-deoxy-6-phosphogluconate] was tested, and the “%Rmax” value (RccR (RccR-His)) was “KDPG addition decreased the affinity of RccR-His for both aceE and rccR consensus sequences”.

aceA promoter DNase I probe was tested, and the binding signal ([1]; lower affinity than aceE and rccR) was 80 nM.

With aceE promoter DNase I probe the binding signal ([1]; two sites) was 10 nM.

For rccR promoter DNase I probe, the binding signal [1] was 20 nM.
